Experimental findings from patent US20240261333A1 (published 2024) are described below.

Common to all, as to experiment: co-IP with anti-FLAG, C-FLAG B3GNT2, mass spectrometry
Assay [1] concerns the target T1, LGALS7B (human, UniProt P47929 1-136).
T1 construct: also called NP_001035972.1
The procedure: (§1) Cells were plated in 10-cm cell culture dishes and grown to 60-80% confluency. For each condition, two biological replicates were harvested for co-IP. Cells were washed with PBS and 4 mL of lysis buffer (20 mM HEPES, 1% Triton X-100, 150 mM NaCl, 1 mM EDTA, and 10% glycerol) containing protease inhibitor cocktail was added. Cells were scraped and lysate was incubated at 4° C. under rotary agitation for 1 h. Lysate was centrifuged at 14,000×g for 10 min at 4° C. Supernatant was transferred to a new tube and an aliquot was taken as the input. […] For Western blots, 10 μg/mL Chicken Anti-FLAG (Aves labs ET-DY100) and IgY control (R&D Systems AB-101-C) antibodies were biotinylated (Thermo Fisher Scientific 90407) and added to the respective conditions. Lysates with antibodies were incubated at 4° C. under rotary agitation overnight. For each mL of lysate, 50 μL of Pierce Protein A/G Magnetic Beads (Mass spectrometry; Thermo Fisher Scientific 88803) or Pierce Streptavidin Magnetic Beads (Western blot; Thermo Fisher Scientific 88817) was washed twice with lysis buffer. Lysates with antibodies were added to the beads and incubated at 4° C. under rotary agitation for 4 h. Beads were washed with lysis buffer 3 times and resuspended in lysis buffer for storage.
(§2) Magnetic beads were resuspended in 100 mM Tris pH 7.8, reduced, alkylated and digested with trypsin at 37° ° C. overnight. This solution was subjected to solid phase extraction to concentrate the peptides and remove unwanted reagents followed by injection onto a Shimadzu HPLC with fraction collector. Eight fractions were collected and after concentration were injected on a Waters NanoAcquity HPLC equipped with a self-packed Aeris 3 μm C18 analytical column 0.075 mm by 20 cm, (Phenomenex). Peptides were eluted using standard reverse-phase gradients. The effluent from the column was analyzed using a Thermo Orbitrap Elite mass spectrometer (nanospray configuration) operated in a data dependent manner for 54 minutes. The resulting fragmentation spectra were correlated against the known database using Proteome Discover 1.4 (Thermo Fisher Scientific).

Assay [2] concerns the target RPL23 (human, UniProt P62829 1-140). The procedure: as §1, §2
The target in assay [3] is T2, PKM (human, UniProt P14618 2-531, limits assumed).
T2 construct: also called NP_001193725.1 (+3)
T2 sequence (P14618 2-531 limits assumed): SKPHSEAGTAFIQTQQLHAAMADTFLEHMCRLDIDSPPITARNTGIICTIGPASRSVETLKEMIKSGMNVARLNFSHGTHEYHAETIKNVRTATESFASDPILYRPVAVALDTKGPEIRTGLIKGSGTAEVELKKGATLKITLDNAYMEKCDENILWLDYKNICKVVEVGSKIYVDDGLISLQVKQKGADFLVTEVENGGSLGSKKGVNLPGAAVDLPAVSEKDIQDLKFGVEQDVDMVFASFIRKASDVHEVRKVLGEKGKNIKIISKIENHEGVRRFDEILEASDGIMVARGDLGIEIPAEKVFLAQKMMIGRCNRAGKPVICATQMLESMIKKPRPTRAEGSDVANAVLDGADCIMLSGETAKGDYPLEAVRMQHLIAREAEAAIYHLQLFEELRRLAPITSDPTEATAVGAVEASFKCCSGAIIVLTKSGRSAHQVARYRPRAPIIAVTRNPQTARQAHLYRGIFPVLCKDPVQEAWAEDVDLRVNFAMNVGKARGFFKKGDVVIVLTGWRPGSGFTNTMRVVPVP
The procedure:
as §1, §2

The target in assay [4] is T3, PSMA3 (human, UniProt P25788 2-255).
T3 construct: also called NP_002779.1 (+1)
T3 sequence (looked up): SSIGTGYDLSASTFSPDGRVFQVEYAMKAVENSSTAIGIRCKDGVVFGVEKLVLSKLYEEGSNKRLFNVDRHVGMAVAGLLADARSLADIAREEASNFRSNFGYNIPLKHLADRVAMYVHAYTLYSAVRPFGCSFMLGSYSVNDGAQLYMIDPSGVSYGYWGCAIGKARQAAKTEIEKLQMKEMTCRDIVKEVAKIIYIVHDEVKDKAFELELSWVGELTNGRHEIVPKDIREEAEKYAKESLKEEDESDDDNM
The procedure: as §1, §2

Assay [5] addresses RPL17 (human, UniProt P18621 2-184). The procedure:
as §1, §2

For assay [6], the target named is T4, JUP (human, UniProt P14923 1-745).
T4 construct: also called NP_001339702.1
T4 sequence (looked up): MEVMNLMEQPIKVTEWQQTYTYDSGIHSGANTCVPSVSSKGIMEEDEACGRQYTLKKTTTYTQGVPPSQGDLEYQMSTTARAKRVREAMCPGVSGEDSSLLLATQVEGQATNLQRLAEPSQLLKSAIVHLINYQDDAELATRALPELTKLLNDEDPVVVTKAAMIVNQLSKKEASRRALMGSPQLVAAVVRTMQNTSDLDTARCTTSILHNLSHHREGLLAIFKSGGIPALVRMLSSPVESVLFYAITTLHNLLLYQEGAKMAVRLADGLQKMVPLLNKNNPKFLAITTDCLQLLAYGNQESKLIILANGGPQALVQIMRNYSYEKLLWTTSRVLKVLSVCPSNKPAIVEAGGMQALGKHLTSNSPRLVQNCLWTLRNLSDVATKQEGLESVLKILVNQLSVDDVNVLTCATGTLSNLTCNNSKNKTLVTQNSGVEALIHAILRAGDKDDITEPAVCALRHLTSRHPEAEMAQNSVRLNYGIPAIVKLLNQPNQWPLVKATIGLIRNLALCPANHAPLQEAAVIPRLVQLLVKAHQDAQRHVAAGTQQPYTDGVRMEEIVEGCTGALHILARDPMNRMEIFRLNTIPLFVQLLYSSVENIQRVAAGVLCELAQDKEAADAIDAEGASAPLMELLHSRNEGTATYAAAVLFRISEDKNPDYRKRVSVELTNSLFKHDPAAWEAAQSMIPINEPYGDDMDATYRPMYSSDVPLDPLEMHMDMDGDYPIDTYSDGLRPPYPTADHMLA
The procedure: as §1, §2

Assay [7] has as its target T5, DDX17 (human, UniProt Q92841 1-729, limits assumed).
T5 construct: also called NP_001091974.1
The procedure:
as §1, §2

In assay [8] the target is T6, SBSN (human, UniProt Q6UWP8 26-590).
T6 construct: also called NP_00159506.1 (+2)
T6 sequence (looked up): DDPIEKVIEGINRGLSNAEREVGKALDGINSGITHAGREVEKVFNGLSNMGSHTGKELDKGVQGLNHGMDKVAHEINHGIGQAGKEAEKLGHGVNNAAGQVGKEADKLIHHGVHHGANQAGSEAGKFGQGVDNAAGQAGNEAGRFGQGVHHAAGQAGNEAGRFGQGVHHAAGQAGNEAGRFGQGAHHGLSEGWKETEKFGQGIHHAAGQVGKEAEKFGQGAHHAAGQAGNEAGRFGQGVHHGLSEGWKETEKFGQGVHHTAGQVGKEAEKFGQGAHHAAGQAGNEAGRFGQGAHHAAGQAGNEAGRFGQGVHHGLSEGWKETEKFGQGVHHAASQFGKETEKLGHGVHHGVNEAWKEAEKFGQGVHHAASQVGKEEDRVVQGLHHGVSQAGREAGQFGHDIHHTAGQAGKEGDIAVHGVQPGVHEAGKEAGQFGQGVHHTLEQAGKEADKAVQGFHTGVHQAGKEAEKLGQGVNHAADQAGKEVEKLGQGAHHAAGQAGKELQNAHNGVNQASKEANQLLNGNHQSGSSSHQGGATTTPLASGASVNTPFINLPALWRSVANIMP
The procedure: as §1, §2

T5 sequence (Q92841 whole entry): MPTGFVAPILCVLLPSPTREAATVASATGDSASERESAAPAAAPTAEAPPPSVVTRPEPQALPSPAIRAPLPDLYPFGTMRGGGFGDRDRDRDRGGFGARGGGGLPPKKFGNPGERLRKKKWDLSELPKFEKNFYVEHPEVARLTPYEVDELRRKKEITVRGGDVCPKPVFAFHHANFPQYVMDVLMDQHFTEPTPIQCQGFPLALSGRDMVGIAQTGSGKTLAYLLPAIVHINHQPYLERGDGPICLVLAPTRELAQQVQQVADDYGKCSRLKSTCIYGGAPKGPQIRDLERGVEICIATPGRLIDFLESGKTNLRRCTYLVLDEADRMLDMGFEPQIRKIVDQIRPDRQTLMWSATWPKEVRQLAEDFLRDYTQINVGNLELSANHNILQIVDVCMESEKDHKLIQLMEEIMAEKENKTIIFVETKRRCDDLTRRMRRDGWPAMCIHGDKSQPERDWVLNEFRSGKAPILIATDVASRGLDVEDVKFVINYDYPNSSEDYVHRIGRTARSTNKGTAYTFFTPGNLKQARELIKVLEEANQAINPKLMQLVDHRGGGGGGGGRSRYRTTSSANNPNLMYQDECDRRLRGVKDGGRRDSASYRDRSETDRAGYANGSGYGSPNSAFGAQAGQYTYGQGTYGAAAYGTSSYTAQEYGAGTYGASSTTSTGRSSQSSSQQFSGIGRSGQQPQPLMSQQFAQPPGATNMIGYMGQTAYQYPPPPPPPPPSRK
T1 sequence (P47929 whole entry): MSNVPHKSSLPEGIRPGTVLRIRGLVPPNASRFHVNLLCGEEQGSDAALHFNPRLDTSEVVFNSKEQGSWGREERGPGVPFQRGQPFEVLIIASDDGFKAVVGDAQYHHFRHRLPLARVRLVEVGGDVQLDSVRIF

B1: C-terminal FLAG tagged B3GNT2 (enzyme, human, UniProt Q9NY97 1-397, looked up)
chain: MSVGRRRIKLLGILMMANVFIYFIMEVSKSSSQEKNGKGEVIIPKEKFWKISTPPEAYWNREQEKLNRQYNPILSMLTNQTGEAGRLSNISHLNYCEPDLRVTSVVTGFNNLPDRFKDFLLYLRCRNYSLLIDQPDKCAKKPFLLLAIKSLTPHFARRQAIRESWGQESNAGNQTVVRVFLLGQTPPEDNHPDLSDMLKFESEKHQDILMWNYRDTFFNLSLKEVLFLRWVSTSCPDTEFVFKGDDDVFVNTHHILNYLNSLSKTKAKDLFIGDVIHNAGPHRDKKLKYYIPEVVYSGLYPPYAGGGGFLYSGHLALRLYHITDQVHLYPIDDVYTGMCLQKLGLVPEKHKGFRTFDIEEKNKNNICSYVDLMLVHSRKPQEMIDIWSQLQSAHLKC
notes: FLAG-tagged ORF overexpressed in cells; pulled down from lysate with mouse anti-FLAG; also called C-FLAG B3GNT2; C-term flag; not shown: C-terminal FLAG tag
For the molecule B1, the “co-IP mass spectrometry count” value in assay [1] came out at 4; in assay [2], 6; in assay [3], 3.

B2: C-terminal FLAG tagged B3GNT2 (enzyme, human, UniProt Q9NY97 1-397, looked up)
chain: MSVGRRRIKLLGILMMANVFIYFIMEVSKSSSQEKNGKGEVIIPKEKFWKISTPPEAYWNREQEKLNRQYNPILSMLTNQTGEAGRLSNISHLNYCEPDLRVTSVVTGFNNLPDRFKDFLLYLRCRNYSLLIDQPDKCAKKPFLLLAIKSLTPHFARRQAIRESWGQESNAGNQTVVRVFLLGQTPPEDNHPDLSDMLKFESEKHQDILMWNYRDTFFNLSLKEVLFLRWVSTSCPDTEFVFKGDDDVFVNTHHILNYLNSLSKTKAKDLFIGDVIHNAGPHRDKKLKYYIPEVVYSGLYPPYAGGGGFLYSGHLALRLYHITDQVHLYPIDDVYTGMCLQKLGLVPEKHKGFRTFDIEEKNKNNICSYVDLMLVHSRKPQEMIDIWSQLQSAHLKC
notes: FLAG-tagged ORF overexpressed in A375 cells; pulled down from the lysate with mouse anti-FLAG; also called C-FLAG B3GNT2; C-term flag; not shown: C-terminal FLAG tag
Regarding B2, the “co-IP/MS count, C-term flag” value in assay [4] came to 0; in assay [5] it was 0; in assay [6], 43; in assay [7], 30; in assay [8] it was 25.
